According to patent US20210139548A1 (published 2021):
*1 amine or outer side, *2 acyl side, *3 side chain or, on linkers, in order; H or OH if unused. Side-chain parts run from the residue outwards. The star is where a group is joined. C18 diacid = O=C(O)CCCCCCCCCCCCCCCCC(=O)*; γGlu = O=C(O)[C@H](CCC(=O)[*:2])N[*:1]; Isovaleryl = CC(C)CC(=O)*; AEEA = NCCOCCOCC(=O)O

T1: human neuropeptide Y2 receptor (human, UniProt P49146 1-381)
T1 construct: whole, on cells; also called hNPY2 receptor; hNPY2-R
T1 sequence (looked up): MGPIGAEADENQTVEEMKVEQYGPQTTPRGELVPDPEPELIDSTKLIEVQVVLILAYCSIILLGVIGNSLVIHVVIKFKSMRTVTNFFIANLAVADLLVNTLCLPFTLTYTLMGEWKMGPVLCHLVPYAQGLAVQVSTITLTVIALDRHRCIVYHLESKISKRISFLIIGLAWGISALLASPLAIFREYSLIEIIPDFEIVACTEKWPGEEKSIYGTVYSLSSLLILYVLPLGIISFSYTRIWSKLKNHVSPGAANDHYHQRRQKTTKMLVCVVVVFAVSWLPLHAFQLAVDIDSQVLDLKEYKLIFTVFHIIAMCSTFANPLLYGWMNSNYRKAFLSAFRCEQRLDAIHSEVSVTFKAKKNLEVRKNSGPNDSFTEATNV

B1: Compound 1 (peptide)
peptide: Isovaleryl-APEK([AEEA-AEEA-γGlu-C18 diacid])PEEDAQPEELQEYYVSLRHYYNWLTRQRY-NH2
SMILES: CC(C)CC(=O)N[C@@H](C)C(=O)N1CCC[C@H]1C(=O)N[C@@H](CCC(=O)O)C(=O)N[C@@H](CCCCNC(=O)COCCOCCNC(=O)COCCOCCNC(=O)CC[C@H](NC(=O)CCCCCCCCCCCCCCCCC(=O)O)C(=O)O)C(=O)N1CCC[C@H]1C(=O)N[C@@H](CCC(=O)O)C(=O)N[C@@H](CCC(=O)O)C(=O)N[C@@H](CC(=O)O)C(=O)N[C@@H](C)C(=O)N[C@@H](CCC(N)=O)C(=O)N1CCC[C@H]1C(=O)N[C@@H](CCC(=O)O)C(=O)N[C@@H](CCC(=O)O)C(=O)N[C@@H](CC(C)C)C(=O)N[C@@H](CCC(N)=O)C(=O)N[C@@H](CCC(=O)O)C(=O)N[C@@H](Cc1ccc(O)cc1)C(=O)N[C@@H](Cc1ccc(O)cc1)C(=O)N[C@H](C(=O)N[C@@H](CO)C(=O)N[C@@H](CC(C)C)C(=O)N[C@@H](CCCNC(=N)N)C(=O)N[C@@H](Cc1c[nH]cn1)C(=O)N[C@@H](Cc1ccc(O)cc1)C(=O)N[C@@H](Cc1ccc(O)cc1)C(=O)N[C@@H](CC(N)=O)C(=O)N[C@@H](Cc1c[nH]c2ccccc12)C(=O)N[C@@H](CC(C)C)C(=O)N[C@H](C(=O)N[C@@H](CCCNC(=N)N)C(=O)N[C@@H](CCC(N)=O)C(=O)N[C@@H](CCCNC(=N)N)C(=O)N[C@@H](Cc1ccc(O)cc1)C(N)=O)[C@@H](C)O)C(C)C
B2: Compound 3 (peptide)
peptide: Isovaleryl-APEK([AEEA-AEEA-γGlu-C18 diacid])PEEEASPAELQRYYVSLRHYYNWLTRQRY-NH2
SMILES: CC(C)CC(=O)N[C@@H](C)C(=O)N1CCC[C@H]1C(=O)N[C@@H](CCC(=O)O)C(=O)N[C@@H](CCCCNC(=O)COCCOCCNC(=O)COCCOCCNC(=O)CC[C@H](NC(=O)CCCCCCCCCCCCCCCCC(=O)O)C(=O)O)C(=O)N1CCC[C@H]1C(=O)N[C@@H](CCC(=O)O)C(=O)N[C@@H](CCC(=O)O)C(=O)N[C@@H](CCC(=O)O)C(=O)N[C@@H](C)C(=O)N[C@@H](CO)C(=O)N1CCC[C@H]1C(=O)N[C@@H](C)C(=O)N[C@@H](CCC(=O)O)C(=O)N[C@@H](CC(C)C)C(=O)N[C@@H](CCC(N)=O)C(=O)N[C@@H](CCCNC(=N)N)C(=O)N[C@@H](Cc1ccc(O)cc1)C(=O)N[C@@H](Cc1ccc(O)cc1)C(=O)N[C@H](C(=O)N[C@@H](CO)C(=O)N[C@@H](CC(C)C)C(=O)N[C@@H](CCCNC(=N)N)C(=O)N[C@@H](Cc1c[nH]cn1)C(=O)N[C@@H](Cc1ccc(O)cc1)C(=O)N[C@@H](Cc1ccc(O)cc1)C(=O)N[C@@H](CC(N)=O)C(=O)N[C@@H](Cc1c[nH]c2ccccc12)C(=O)N[C@@H](CC(C)C)C(=O)N[C@H](C(=O)N[C@@H](CCCNC(=N)N)C(=O)N[C@@H](CCC(N)=O)C(=O)N[C@@H](CCCNC(=N)N)C(=O)N[C@@H](Cc1ccc(O)cc1)C(N)=O)[C@@H](C)O)C(C)C
B3: Compound 6 (peptide)
peptide: Isovaleryl-APEK([AEEA-AEEA-γGlu-C18 diacid])PEEEASPEELQRYYVSARHYYNWLTRQRY-NH2
SMILES: CC(C)CC(=O)N[C@@H](C)C(=O)N1CCC[C@H]1C(=O)N[C@@H](CCC(=O)O)C(=O)N[C@@H](CCCCNC(=O)COCCOCCNC(=O)COCCOCCNC(=O)CC[C@H](NC(=O)CCCCCCCCCCCCCCCCC(=O)O)C(=O)O)C(=O)N1CCC[C@H]1C(=O)N[C@@H](CCC(=O)O)C(=O)N[C@@H](CCC(=O)O)C(=O)N[C@@H](CCC(=O)O)C(=O)N[C@@H](C)C(=O)N[C@@H](CO)C(=O)N1CCC[C@H]1C(=O)N[C@@H](CCC(=O)O)C(=O)N[C@@H](CCC(=O)O)C(=O)N[C@@H](CC(C)C)C(=O)N[C@@H](CCC(N)=O)C(=O)N[C@@H](CCCNC(=N)N)C(=O)N[C@@H](Cc1ccc(O)cc1)C(=O)N[C@@H](Cc1ccc(O)cc1)C(=O)N[C@H](C(=O)N[C@@H](CO)C(=O)N[C@@H](C)C(=O)N[C@@H](CCCNC(=N)N)C(=O)N[C@@H](Cc1c[nH]cn1)C(=O)N[C@@H](Cc1ccc(O)cc1)C(=O)N[C@@H](Cc1ccc(O)cc1)C(=O)N[C@@H](CC(N)=O)C(=O)N[C@@H](Cc1c[nH]c2ccccc12)C(=O)N[C@@H](CC(C)C)C(=O)N[C@H](C(=O)N[C@@H](CCCNC(=N)N)C(=O)N[C@@H](CCC(N)=O)C(=O)N[C@@H](CCCNC(=N)N)C(=O)N[C@@H](Cc1ccc(O)cc1)C(N)=O)[C@@H](C)O)C(C)C
B4: Compound 4 (peptide)
peptide: Isovaleryl-APEK([AEEA-AEEA-γGlu-C18 diacid])PEEDASPEELQRYYVSLRHYYNWLQRQRY-NH2
SMILES: CC(C)CC(=O)N[C@@H](C)C(=O)N1CCC[C@H]1C(=O)N[C@@H](CCC(=O)O)C(=O)N[C@@H](CCCCNC(=O)COCCOCCNC(=O)COCCOCCNC(=O)CC[C@H](NC(=O)CCCCCCCCCCCCCCCCC(=O)O)C(=O)O)C(=O)N1CCC[C@H]1C(=O)N[C@@H](CCC(=O)O)C(=O)N[C@@H](CCC(=O)O)C(=O)N[C@@H](CC(=O)O)C(=O)N[C@@H](C)C(=O)N[C@@H](CO)C(=O)N1CCC[C@H]1C(=O)N[C@@H](CCC(=O)O)C(=O)N[C@@H](CCC(=O)O)C(=O)N[C@@H](CC(C)C)C(=O)N[C@@H](CCC(N)=O)C(=O)N[C@@H](CCCNC(=N)N)C(=O)N[C@@H](Cc1ccc(O)cc1)C(=O)N[C@@H](Cc1ccc(O)cc1)C(=O)N[C@H](C(=O)N[C@@H](CO)C(=O)N[C@@H](CC(C)C)C(=O)N[C@@H](CCCNC(=N)N)C(=O)N[C@@H](Cc1c[nH]cn1)C(=O)N[C@@H](Cc1ccc(O)cc1)C(=O)N[C@@H](Cc1ccc(O)cc1)C(=O)N[C@@H](CC(N)=O)C(=O)N[C@@H](Cc1c[nH]c2ccccc12)C(=O)N[C@@H](CC(C)C)C(=O)N[C@@H](CCC(N)=O)C(=O)N[C@@H](CCCNC(=N)N)C(=O)N[C@@H](CCC(N)=O)C(=O)N[C@@H](CCCNC(=N)N)C(=O)N[C@@H](Cc1ccc(O)cc1)C(N)=O)C(C)C
B5: Compound 5 (peptide)
peptide: Isovaleryl-APEK([AEEA-AEEA-γGlu-C18 diacid])PEEEVSPEELQRYYVSLRHYYNWLTRQRY-NH2
SMILES: CC(C)CC(=O)N[C@@H](C)C(=O)N1CCC[C@H]1C(=O)N[C@@H](CCC(=O)O)C(=O)N[C@@H](CCCCNC(=O)COCCOCCNC(=O)COCCOCCNC(=O)CC[C@H](NC(=O)CCCCCCCCCCCCCCCCC(=O)O)C(=O)O)C(=O)N1CCC[C@H]1C(=O)N[C@@H](CCC(=O)O)C(=O)N[C@@H](CCC(=O)O)C(=O)N[C@@H](CCC(=O)O)C(=O)N[C@H](C(=O)N[C@@H](CO)C(=O)N1CCC[C@H]1C(=O)N[C@@H](CCC(=O)O)C(=O)N[C@@H](CCC(=O)O)C(=O)N[C@@H](CC(C)C)C(=O)N[C@@H](CCC(N)=O)C(=O)N[C@@H](CCCNC(=N)N)C(=O)N[C@@H](Cc1ccc(O)cc1)C(=O)N[C@@H](Cc1ccc(O)cc1)C(=O)N[C@H](C(=O)N[C@@H](CO)C(=O)N[C@@H](CC(C)C)C(=O)N[C@@H](CCCNC(=N)N)C(=O)N[C@@H](Cc1c[nH]cn1)C(=O)N[C@@H](Cc1ccc(O)cc1)C(=O)N[C@@H](Cc1ccc(O)cc1)C(=O)N[C@@H](CC(N)=O)C(=O)N[C@@H](Cc1c[nH]c2ccccc12)C(=O)N[C@@H](CC(C)C)C(=O)N[C@H](C(=O)N[C@@H](CCCNC(=N)N)C(=O)N[C@@H](CCC(N)=O)C(=O)N[C@@H](CCCNC(=N)N)C(=O)N[C@@H](Cc1ccc(O)cc1)C(N)=O)[C@@H](C)O)C(C)C)C(C)C

Molecular target: T1, human neuropeptide Y2 receptor
Assay: radioligand competition (125I-PYY(1-36)), hNPY2R membranes
Protocol: The filtration RLB assay was carried out in 96-well plates in a final volume of 100 μl per well. Freeze-dried test peptides were dissolved in 100% dimethyl sulfoxide (DMSO) to stock solutions of 1 mM and serial dilutions were performed in assay buffer (50 mM HEPES, 5 mM MgCl₂, 1 mM CaCl₂, pH 7.4) containing 0.2% ovalbumin. […] Next, 80 μL membranes (HTS066M, ChemiSCREEN™ Human Neuropeptide Y2 Receptor Membrane Preparation, CHEMICON) were added to each well to give a final protein concentration of 0.5 μg/well. The plates were sealed and incubated at room temperature for 2 hours in a plate shaker set at 400 rpm. The incubation was stopped by vacuum filtration onto 0.5% poly-ethylene amine (PEI) presoaked GF/C filters using a 96-well FilterMate™ harvester (Perkin Elmer) followed by four washes with 300 μl/well ice-cold wash buffer (50 mM HEPES, 500 mM NaCl, pH7.4). Filter plates were then dried for 60 min at room temperature and the bottom of the plates was sealed with backing tape UniFilter-96. Finally, 50 μl/well scintillation counter cocktail (Microscint20, Packard) was added and the radioactivity was counted in the Packard TopCount NXT scintillation counter. IC₅₀ values (the half maximal inhibitory concentration of the agonist) were calculated by nonlinear regression analysis of sigmoidal dose-response curves.

Binder	Ki [nM]
B1	2.5
B2	3.14
B3	6.52
B4	1.43
B5	14.8
